Measurements taken from patent publication US20100183623A1 (INHIBITEX, published 2010).

T1: SdrF N3 (517-679), His-tagged recombinant fragment (Staphylococcus epidermidis (K28 genomic …, UniProt Q9KI14 517-678))
T1 construct: expressed in E. coli
T1 sequence: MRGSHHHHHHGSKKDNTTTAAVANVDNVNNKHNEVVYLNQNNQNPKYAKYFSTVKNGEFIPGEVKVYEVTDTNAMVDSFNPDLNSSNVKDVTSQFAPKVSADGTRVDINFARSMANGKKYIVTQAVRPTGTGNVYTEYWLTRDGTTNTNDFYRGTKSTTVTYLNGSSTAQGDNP

T2: SdrF N1N2N3 (52-679), His-tagged recombinant A domain of S. epidermidis SdrF (Staphylococcus epidermidis (K28 genomic …, UniProt Q9KI14 53-678))
T2 construct: expressed in E. coli; also called SdrF A domain
T2 sequence: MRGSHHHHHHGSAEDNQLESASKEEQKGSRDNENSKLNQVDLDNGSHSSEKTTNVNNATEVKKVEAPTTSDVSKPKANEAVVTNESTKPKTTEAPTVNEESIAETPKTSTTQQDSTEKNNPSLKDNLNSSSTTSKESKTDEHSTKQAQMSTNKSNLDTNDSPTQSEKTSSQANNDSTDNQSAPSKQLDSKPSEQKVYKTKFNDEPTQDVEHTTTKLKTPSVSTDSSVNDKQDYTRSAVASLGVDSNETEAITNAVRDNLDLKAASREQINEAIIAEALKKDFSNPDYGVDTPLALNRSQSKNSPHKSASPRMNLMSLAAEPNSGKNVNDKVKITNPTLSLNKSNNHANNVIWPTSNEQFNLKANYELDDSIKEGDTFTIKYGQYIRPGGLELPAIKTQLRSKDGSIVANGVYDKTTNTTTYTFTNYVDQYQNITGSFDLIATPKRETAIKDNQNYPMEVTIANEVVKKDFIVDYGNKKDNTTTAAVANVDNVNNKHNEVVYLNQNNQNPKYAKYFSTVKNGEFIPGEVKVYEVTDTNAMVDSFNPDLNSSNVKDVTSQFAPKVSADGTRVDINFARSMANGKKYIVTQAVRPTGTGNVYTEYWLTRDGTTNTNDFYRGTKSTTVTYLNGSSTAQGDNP

T3: SdrF N2N3 (361-679), His-tagged recombinant fragment (Staphylococcus epidermidis (K28 genomic …, UniProt Q9KI14 361-678))
T3 construct: expressed in E. coli
T3 sequence: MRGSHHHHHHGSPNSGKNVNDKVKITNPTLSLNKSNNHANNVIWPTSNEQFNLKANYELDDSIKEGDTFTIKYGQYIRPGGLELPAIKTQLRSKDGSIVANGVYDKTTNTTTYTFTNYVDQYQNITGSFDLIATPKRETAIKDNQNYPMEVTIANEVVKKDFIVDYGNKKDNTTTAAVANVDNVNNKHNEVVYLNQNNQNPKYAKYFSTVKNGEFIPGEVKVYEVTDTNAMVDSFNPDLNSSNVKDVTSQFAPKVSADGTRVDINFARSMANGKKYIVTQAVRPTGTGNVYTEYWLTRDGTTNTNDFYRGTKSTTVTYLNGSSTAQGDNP

T4: SdrF N2 (361-517), His-tagged recombinant fragment (Staphylococcus epidermidis (K28 genomic …, UniProt Q8CMP4 361-517))
T4 construct: expressed in E. coli
T4 sequence: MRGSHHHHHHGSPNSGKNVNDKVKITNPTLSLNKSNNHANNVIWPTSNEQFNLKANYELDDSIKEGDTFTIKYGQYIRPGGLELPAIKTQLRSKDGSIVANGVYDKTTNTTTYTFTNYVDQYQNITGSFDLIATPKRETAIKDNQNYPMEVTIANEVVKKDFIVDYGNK

B1: murine anti-SdrF monoclonal antibody 108-36 (antibody, V domains shown)
VH: QVTLRESGPGILQPSQTLSLTCSFSGFSLNTSGMGVTWIRQPSGKGLEWLANIYWDDDKRYNPSLKSRLTISKANSRNQVFLKITSVDTADTATYYCTRPNYLGTVYWYFDVWGAGTMVTVSS
VL: QIVLTQSPAIMSASPGEKVTMTCSASSSVSYMYWYQQKPGSSPRVLIYDTSNLASGVPVRFSGSGSGTSYSLTISRMEAEDAATYYCQQWNGYPPTFGAGTKLEVK
notes: Mouse hybridoma antibody (fusion F108)
B2: murine anti-SdrF monoclonal antibody 110-15 (antibody, V domains shown)
VH: EVQLVESGGGLVKPGGSLKLSCAASGFAFSSYDMSWVRQTPEKRLEWVAYISSGGGITYYPDTVKGRFTISRDNAKNTLYVQMSSLKSEDTAIYYCTRHDRDSWFAYWGQGTLVTVSA
VL: QIVLTQSPAIMSASPGEEGTMTCSASSSVRYMYWYRQKPGSSPRLLIYDTSNLASGVPVRFSGSGSGTSYSLTISRMEAEDAATYYCQQWSSYPPTFGGGTKLEMK
notes: Mouse hybridoma antibody (fusion F110); also called Murine 110-15; 110-15VL-Mouse/110-15VH-Mouse
B3: Humanized 108-36 (antibody, V domains shown)
VH: QVTLRESGPGILKPSQTLSLTCTFSGFSLNTSGMGVTWIRQPSGKGLEWLANIYWDDDKRYNPSLKSRLTISKANSRNQVFLKITSVDPVDTATYYCTRPNYLGTVYWYFDVWGQGTMVTVSS
VL: EIVLTQSPATMSASPGERVTMSCSASSSVSYMYWYQQKPGQSPRVLIYDTSNLASGVPSRFSGSGSGTSYSLTISSMEPEDAATYYCQQWNGYPPTFGGGTKLEVK
modifications: N-linked carbohydrate chain on the asparagine at position 30 of the variable heavy chain
notes: Humanized (veneered) variable regions with 'the appropriate light or heavy chain constant region', expressed in NSO cells; also called Hu108-36
B4: murine anti-SdrF monoclonal antibody 108-1 (antibody, V domains shown)
VH: EVQLQQSGAELVKPGASVKLSCTASGFNIKDTYIHWVKQRPEQGLEWIGRIDPANGNTHYDSQFQGKATITADTSSNTAYLQLSSLTSDDTAVYYCTRRVGYAMDYWGQGTSVTVSS
VL: DIVMTQSHKFMSTSVGDRVIITCKASQDVNTALAWYQQKPGQSPKLLIYSASYRYTGVPDRFTGSGSGTDFTFTISSVQAEDLAVYYCQQHYSTPPYTFGGGTKLEIK
notes: Mouse hybridoma antibody (Balb/C, fusion F108)
B5: Humanized 108-1 (antibody, V domains shown)
VH: QVQLVQSGAEVVKPGASVKLSCKASGFNIKDTYIHWVKQRPGQGLEWIGRIDPANGNTHYDSQFQGKATITADTSTSTAYLQLSSLRSEDTAVYYCTRRVGYAMDYWGQGTTVTVSS
VL: DIVMTQSQKFMSTSVGDRVTITCKASQDVNTALAWYQQKPGQSPKLLIYSASYRYTGVPSRFSGSGSGTDFTFTISSVQAEDLAVYYCQQHYSTPPYTFGGGTKLEIK
notes: Humanized (veneered) variable regions spliced into plasmids with 'the appropriate light or heavy chain constant region', expressed in NSO cells
B6: Humanized 110-15 (antibody, V domains shown)
VH: EVQLVESGGGLVQPGGSLKLSCAASGFAFSSYDMSWVRQTPEKRLEWVAYISSGGGITYYPDTVKGRFTISRDNSKNTLYVQMSSLRAEDTAVYYCTRHDRDSWFAYWGQGTLVTVSS
VL: EIVLTQSPGTMSASPGERGTMSCSASSSVRYMYWYRQKPGQSPRLLIYDTSNLASGVPARFSGSGSGTSYSLTISRMEAEDAATYYCQQWSSYPPTFGGGTKLEMK
notes: Humanized (veneered) variable regions with 'the appropriate light or heavy chain constant region', expressed in NSO cells; also called 110-15VL-Hu/110-15VH-Hu

Key:
[1] = biological target: T1, SdrF N3 (517-679), His-tagged …; experiment: ELISA, plate coated with SdrF N3
[2] = biological target: T2, SdrF N1N2N3 (52-679), His-tagged …; experiment: Biacore, mAb captured via RAM-Fc, SdrF injected
[3] = biological target: T3, SdrF N2N3 (361-679), His-tagged …; experiment: ELISA, plate coated with SdrF N2N3, hybridoma supernatant
[4] = biological target: T2, SdrF N1N2N3 (52-679), His-tagged …; experiment: Biacore 3000, ligand capture of mAb, SdrF (N1N2N3) in flow
[5] = biological target: T2, SdrF N1N2N3 (52-679), His-tagged …; experiment: ELISA, plate coated with SdrF N1N2N3, hybridoma supernatant
[6] = biological target: T2, SdrF N1N2N3 (52-679), His-tagged …; experiment: Biacore 3000, mAb captured on anti-F(ab)2 chip, SdrF (N1N2N3) in flow
[7] = biological target: T4, SdrF N2 (361-517), His-tagged …; experiment: ELISA, plate coated with SdrF N2

Binder	binding result [1]	Biacore SdrF bound [2]	ELISA OD405 [3] [OD405]	Ka [4] [M⁻¹]	Kd [4] [nM]	koff [4] [s⁻¹]	kon [4] [M⁻¹ s⁻¹]	ELISA OD405 [5] [OD405]	Ka [6] [M⁻¹]	Kd [6] [nM]	koff [6] [s⁻¹]	kon [6] [M⁻¹ s⁻¹]	binding result [7]
B1	no binding	146	0.72	4.5e+09	0.22	5.6e-05	230000	0.77	4.52e+09	0.221	5.6e-05	232000	–
B2	no binding	153	0.7	1.3e+08	0.77	0.00016	210000	0.63	1.29e+09	0.774	0.000164	212000	no binding
B3	–	–	–	2.2e+09	0.46	6.3e-05	140000	–	–	–	–	–	–
B4	–	146	0.99	6.2e+08	1.6	0.00013	83000	0.89	6.2e+08	1.61	0.000134	82900	–
B5	–	–	–	5.6e+08	1.8	0.00017	94000	–	–	–	–	–	–
B6	–	–	–	1.4e+09	0.74	0.00013	170000	–	–	–	–	–	–
